Test results as given in publication doi:10.1101/2020.01.13.903898 (bioRxiv, 2020).

Tests used:
[1] = target: zebrafish PATZ1 BTB domain (residues 1-135) (zebrafish (Danio rerio)); assay: SEC
SEC = target: the molecule itself; assay: SEC

## zebrafish PATZ1 BTB domain (residues 1-135) (domain or fragment)
[1]
  stoichiometry N: 2

B1: mouse PATZ1 BTB domain (residues 12-166) (domain or fragment)
chain: SGCYTYQVSRHSTEMLHNLNQQRKNGGRFCDVLLRVGDESFPAHRAVLAACSEYFESVFSAQLGDGGAADGGPADVGGAAAAPGGGAGGSRELEMHTISSKVFGDILDFAYTSRIVVRLESFPELMTAAKFLLMRSVIEICQEVIKQSNVQILVP
SEC
  stoichiometry N: 2
